PMC9335864 (Journal of the American Chemical Society, 2022)
Read-outs that look alike come from different tables or passages of the source.

T1: p47-UBX domain (Homo sapiens, biotin (site not stated) where anchored on the BLI sensor tip)
T1 chain: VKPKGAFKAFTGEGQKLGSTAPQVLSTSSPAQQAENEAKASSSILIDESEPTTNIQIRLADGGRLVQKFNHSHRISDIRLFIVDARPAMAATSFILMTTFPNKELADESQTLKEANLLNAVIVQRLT

T2: p37-UBX domain (Homo sapiens)
T2 chain: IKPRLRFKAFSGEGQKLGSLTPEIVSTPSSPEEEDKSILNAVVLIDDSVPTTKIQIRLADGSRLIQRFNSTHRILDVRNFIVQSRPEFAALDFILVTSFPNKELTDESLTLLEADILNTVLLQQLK

T3: C-terminal Halo-tagged p47-UBX domain (Homo sapiens)
T3 chain: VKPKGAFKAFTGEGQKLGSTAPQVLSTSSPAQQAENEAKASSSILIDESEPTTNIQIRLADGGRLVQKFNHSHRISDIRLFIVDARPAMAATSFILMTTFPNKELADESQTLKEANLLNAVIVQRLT


What was measured:
[1] = target: full-length p47 (human, UniProt Q9UNZ2); test: SPR; competition: as for p47-UBX but with full-length p47 on immobilised p97 (Figure S7); conditions: both partners purified
[2] = target: T1, p47-UBX domain; test: BLI; biotinylated p47-UBX anchored on the sensor tip; increasing amounts of each scFv; dose-response profiles; conditions: both partners purified
[3] = target: T2, p37-UBX domain; test: BLI; selectivity of the scFvs against the p97-binding domains of other adaptor proteins (NPL4-UBXL, FAF1-UBX, p37-UBX) beside p47-UBX; set-up not told in the main text; conditions: both partners purified
[4] = target: p47 (endogenous) (human (endogenous in U2OS), UniProt Q9UNZ2); test: co-IP; co-IP of p47 from lysates of U2OS cells transfected with plasmids for HA-tagged antibody fragments; p47-containing complexes captured and blotted; conditions: partners not purified
[5] = target: T1, p47-UBX domain; test: SPR; competition: biotinylated full-length p97 on a streptavidin chip; mixture of increasing concentrations of scFv and a fixed concentration of p47-UBX flowed over; with 100 uM ATP or 100 uM ADP; conditions: both partners purified
[6] = target: T3, C-terminal Halo-tagged p47-UBX domain; test: FRET or BRET; NanoBRET in p47-knockout U2OS cells: Nanoluciferase-p97-N donor, p47-UBX-HaloTag acceptor, co-transfected with antibody-fragment or p47-FLAG plasmids; compared with scFv-RNase and scFab-RNase controls; conditions: partners not purified
[7] = target: p97 (endogenous) (human (endogenous in U2OS), UniProt P55072); test: co-IP; co-IP of p97 from U2OS cells expressing scFv-A06 (Figure S10); conditions: partners not purified
[8] = target: T1, p47-UBX domain
[9] = target: full-length human p97 (human, UniProt P55072 1-806, biotin (site not stated)); test: SPR; competition: as for p47-UBX but with full-length p47 on immobilised p97 (Figure S7); conditions: both partners purified
full-length human p97, sequence (P55072 whole entry): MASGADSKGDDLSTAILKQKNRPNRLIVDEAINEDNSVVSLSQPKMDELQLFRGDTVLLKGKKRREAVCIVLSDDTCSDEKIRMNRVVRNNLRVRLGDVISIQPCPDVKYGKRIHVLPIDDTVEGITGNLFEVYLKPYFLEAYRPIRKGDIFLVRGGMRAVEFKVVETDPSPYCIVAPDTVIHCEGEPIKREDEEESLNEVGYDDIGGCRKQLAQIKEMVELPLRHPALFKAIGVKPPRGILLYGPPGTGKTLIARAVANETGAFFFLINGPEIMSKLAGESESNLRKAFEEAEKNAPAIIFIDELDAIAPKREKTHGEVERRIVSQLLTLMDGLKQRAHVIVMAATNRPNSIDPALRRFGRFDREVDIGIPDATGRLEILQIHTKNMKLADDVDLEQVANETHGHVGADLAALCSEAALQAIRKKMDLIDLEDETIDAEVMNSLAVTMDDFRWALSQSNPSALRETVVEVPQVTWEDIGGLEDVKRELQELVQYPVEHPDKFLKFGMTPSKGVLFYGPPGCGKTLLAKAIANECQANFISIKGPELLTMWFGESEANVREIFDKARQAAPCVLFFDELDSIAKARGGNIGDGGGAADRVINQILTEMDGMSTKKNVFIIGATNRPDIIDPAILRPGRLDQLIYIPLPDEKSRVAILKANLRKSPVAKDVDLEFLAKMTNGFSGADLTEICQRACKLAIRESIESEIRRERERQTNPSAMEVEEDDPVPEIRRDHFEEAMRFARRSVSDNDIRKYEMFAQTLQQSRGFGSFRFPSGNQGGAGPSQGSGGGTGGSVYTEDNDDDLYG

p97 (endogenous), sequence (P55072 whole entry, the tested form may be a part): as the sequence (P55072 whole entry) above

binding result [1] | binding result [4] | Binder | other results
 | binds | scFab-E04 with C-terminal HA tag, expressed in cells (Fab, V domains shown) VH: EVQLVESGGGLVQPGGSLRLSCAASGFNFSSYSIHWVRQAPGKGLEWVASISPYYGSTYYADSVKGRFTISADTSKNTAYLQMNSLRAEDTAVYYCARYKYYMSGRYTWALDYWGQGTLVTVSS VL: DIQMTQSPSSLSASVGDRVTITCRASQSVSSAVAWYQQKPGKAPKLLIYSASSLYSGVPSRFSGSRSGTDFTLTISSLQPEDFATYYCQQEFFVPFTFGQGTKVEIK | 
 | binds | scFv-E04 with C-terminal HA tag, expressed in cells (scFv, V domains shown) VH: QVQLVESGGGLVQPGGSLRLSCAASGFNFSSYSIHWVRQAPGKGLEWVASISPYYGSTYYADSVKGRFTISADTSKNTAYLQMNSLRAEDTAVYYCARYKYYMSGRYTWALDYWGQGTLVTVSS VL: DIQMTQSPSSLSASVGDRVTITCRASQSVSSAVAWYQQKPGKAPKLLIYSASSLYSGVPSRFSGSRSGTDFTLTISSLQPEDFATYYCQQEFFVPFTFGQGTKVEIK | 
binds |  | scFv-E04 (scFv, V domains shown) VH: QVQLVESGGGLVQPGGSLRLSCAASGFNFSSYSIHWVRQAPGKGLEWVASISPYYGSTYYADSVKGRFTISADTSKNTAYLQMNSLRAEDTAVYYCARYKYYMSGRYTWALDYWGQGTLVTVSS VL: DIQMTQSPSSLSASVGDRVTITCRASQSVSSAVAWYQQKPGKAPKLLIYSASSLYSGVPSRFSGSRSGTDFTLTISSLQPEDFATYYCQQEFFVPFTFGQGTKVEIK | Kd [2]: ~7 nM; Kd [3]: ~4 nM
binds |  | scFv-G08 (scFv, V domains shown) VH: QVQLVESGGGLVQPGGSLRLSCAASGFNISYSYIHWVRQAPGKGLEWVAYIYPYSGSTYYADSVKGRFTISADTSKNTAYLQMNSLRAEDTAVYYCARDPHWAMDYWGQGTLVTVSS VL: DIQMTQSPSSLSASVGDRVTITCRASQSVGSALAWYQQKPGKAPKLLIYSASSLYSGVPSRFSGSRSGTDFTLTISSLQPEDFATYYCQQSFSSVPFTFGQGTKVEIK | binding result [5]: binds

Further lines, the binder ahead of its results:

Binder | binding result [1] | binding result [4] | other results
scFv-A06 (scFv, V domains shown) VH: QVQLVESGGGLVQPGGSLRLSCAASGFNISSYSMHWVRQAPGKGLEWVASISSSYGSTYYADSVKGRFTISADTSKNTAYLQMNSLRAEDTAVYYCARSDWYYGDAWGVPYYAFDYWGQGTLVTVSS VL: DIQMTQSPSSLSASVGDRVTITCRASQSVGSALAWYQQKPGKAPKLLIYSASSLYSGVPSRFSGSRSGTDFTLTISSLQPEDFATYYCQQSWFLITFGQGTKVEIK | binds |  | Kd [2]: ~3 nM; binding result [3]: no binding
scFab-A06 with C-terminal HA tag, expressed in cells (Fab, V domains shown) VH: EVQLVESGGGLVQPGGSLRLSCAASGFNISSYSMHWVRQAPGKGLEWVASISSSYGSTYYADSVKGRFTISADTSKNTAYLQMNSLRAEDTAVYYCARSDWYYGDAWGVPYYAFDYWGQGTLVTVSS VL: DIQMTQSPSSLSASVGDRVTITCRASQSVGSALAWYQQKPGKAPKLLIYSASSLYSGVPSRFSGSRSGTDFTLTISSLQPEDFATYYCQQSWFLITFGQGTKVEIK |  | binds | 
scFv-B01 (scFv, V domains shown) VH: QVQLVESGGGLVQPGGSLRLSCAASGFNISSYYMHWVRQAPGKGLEWVASIYPSYSSTSYADSVKGRFTISADTSKNTAYLQMNSLRAEDTAVYYCARSSDYDRYWYWSYDAFDYWGQGTLVTVSS VL: DIQMTQSPSSLSASVGDRVTITCRASQSVGSALAWYQQKPGKAPKLLIYSASSLYSGVPSRFSGSRSGTDFTLTISSLQPEDFATYYCQQSWDLFTFGQGTKVEIK | binds |  | binding result [5]: binds
scFab-NLS A06 with C-terminal HA tag, expressed in cells (Fab, V domains shown) VH: EVQLVESGGGLVQPGGSLRLSCAASGFNISSYSMHWVRQAPGKGLEWVASISSSYGSTYYADSVKGRFTISADTSKNTAYLQMNSLRAEDTAVYYCARSDWYYGDAWGVPYYAFDYWGQGTLVTVSS VL: DIQMTQSPSSLSASVGDRVTITCRASQSVGSALAWYQQKPGKAPKLLIYSASSLYSGVPSRFSGSRSGTDFTLTISSLQPEDFATYYCQQSWFLITFGQGTKVEIK |  | binds | 
scFv-A06 with C-terminal HA tag, expressed in cells (scFv, V domains shown) VH: QVQLVESGGGLVQPGGSLRLSCAASGFNISSYSMHWVRQAPGKGLEWVASISSSYGSTYYADSVKGRFTISADTSKNTAYLQMNSLRAEDTAVYYCARSDWYYGDAWGVPYYAFDYWGQGTLVTVSS VL: DIQMTQSPSSLSASVGDRVTITCRASQSVGSALAWYQQKPGKAPKLLIYSASSLYSGVPSRFSGSRSGTDFTLTISSLQPEDFATYYCQQSWFLITFGQGTKVEIK |  | binds | reduction of the BRET ratio of the p97-N/p47-UBX pair [6]: ~15%; binding result [7]: binds
scFv-A04 (antibody, V domains shown) VH: QVQLVESGGGLVQPGGSLRLSCAASGFNVYSSSIHWVRQAPGKGLEWVASIYPSYGSTYYADSVKGRFTISADTSKNTAYLQMNSLRAEDTAVYYCARSYEWKYSYYRGGFDYWGQGTLVTVSS VL: DIQMTQSPSSLSASVGDRVTITCRASQSVSSAVAWYQQKPGKAPKLLIYSASSLYSGVPSRFSGSRSGTDFTLTISSLQPEDFATYYCQQGYYLPVTFGQGTKVEIK |  |  | binding result [8]: binds
scFab-NLS E04 with C-terminal HA tag, expressed in cells (Fab, V domains shown) VH: EVQLVESGGGLVQPGGSLRLSCAASGFNFSSYSIHWVRQAPGKGLEWVASISPYYGSTYYADSVKGRFTISADTSKNTAYLQMNSLRAEDTAVYYCARYKYYMSGRYTWALDYWGQGTLVTVSS VL: DIQMTQSPSSLSASVGDRVTITCRASQSVSSAVAWYQQKPGKAPKLLIYSASSLYSGVPSRFSGSRSGTDFTLTISSLQPEDFATYYCQQEFFVPFTFGQGTKVEIK |  | binds | 
full-length p47 (natural protein, human, UniProt Q9UNZ2 1-370, looked up) MAAERQEALREFVAVTGAEEDRARFFLESAGWDLQIALASFYEDGGDEDIVTISQATPSSVSRGTAPSDNRVTSFRDLIHDQDEDEEEEEGQRFYAGGSERSGQQIVGPPRKKSPNELVDDLFKGAKEHGAVAVERVTKSPGETSKPRPFAGGGYRLGAAPEEESAYVAGEKRQHSSQDVHVVLKLWKSGFSLDNGELRSYQDPSNAQFLESIRRGEVPAELRRLAHGGQVNLDMEDHRDEDFVKPKGAFKAFTGEGQKLGSTAPQVLSTSSPAQQAENEAKASSSILIDESEPTTNIQIRLADGGRLVQKFNHSHRISDIRLFIVDARPAMAATSFILMTTFPNKELADESQTLKEANLLNAVIVQRLT |  |  | binding result [9]: binds
